Experimental findings from PMC4712668 (RNA, 2016) are described below.

The target in series [1] is T1, CLIP-6Myc-FLAG-TEV-Myc-Drosha (human, UniProt Q9NRR4 1-1374, CLIP-surface 547 or CLIP-surface 488 fluorophore on the CLIP tag).
T1 sequence: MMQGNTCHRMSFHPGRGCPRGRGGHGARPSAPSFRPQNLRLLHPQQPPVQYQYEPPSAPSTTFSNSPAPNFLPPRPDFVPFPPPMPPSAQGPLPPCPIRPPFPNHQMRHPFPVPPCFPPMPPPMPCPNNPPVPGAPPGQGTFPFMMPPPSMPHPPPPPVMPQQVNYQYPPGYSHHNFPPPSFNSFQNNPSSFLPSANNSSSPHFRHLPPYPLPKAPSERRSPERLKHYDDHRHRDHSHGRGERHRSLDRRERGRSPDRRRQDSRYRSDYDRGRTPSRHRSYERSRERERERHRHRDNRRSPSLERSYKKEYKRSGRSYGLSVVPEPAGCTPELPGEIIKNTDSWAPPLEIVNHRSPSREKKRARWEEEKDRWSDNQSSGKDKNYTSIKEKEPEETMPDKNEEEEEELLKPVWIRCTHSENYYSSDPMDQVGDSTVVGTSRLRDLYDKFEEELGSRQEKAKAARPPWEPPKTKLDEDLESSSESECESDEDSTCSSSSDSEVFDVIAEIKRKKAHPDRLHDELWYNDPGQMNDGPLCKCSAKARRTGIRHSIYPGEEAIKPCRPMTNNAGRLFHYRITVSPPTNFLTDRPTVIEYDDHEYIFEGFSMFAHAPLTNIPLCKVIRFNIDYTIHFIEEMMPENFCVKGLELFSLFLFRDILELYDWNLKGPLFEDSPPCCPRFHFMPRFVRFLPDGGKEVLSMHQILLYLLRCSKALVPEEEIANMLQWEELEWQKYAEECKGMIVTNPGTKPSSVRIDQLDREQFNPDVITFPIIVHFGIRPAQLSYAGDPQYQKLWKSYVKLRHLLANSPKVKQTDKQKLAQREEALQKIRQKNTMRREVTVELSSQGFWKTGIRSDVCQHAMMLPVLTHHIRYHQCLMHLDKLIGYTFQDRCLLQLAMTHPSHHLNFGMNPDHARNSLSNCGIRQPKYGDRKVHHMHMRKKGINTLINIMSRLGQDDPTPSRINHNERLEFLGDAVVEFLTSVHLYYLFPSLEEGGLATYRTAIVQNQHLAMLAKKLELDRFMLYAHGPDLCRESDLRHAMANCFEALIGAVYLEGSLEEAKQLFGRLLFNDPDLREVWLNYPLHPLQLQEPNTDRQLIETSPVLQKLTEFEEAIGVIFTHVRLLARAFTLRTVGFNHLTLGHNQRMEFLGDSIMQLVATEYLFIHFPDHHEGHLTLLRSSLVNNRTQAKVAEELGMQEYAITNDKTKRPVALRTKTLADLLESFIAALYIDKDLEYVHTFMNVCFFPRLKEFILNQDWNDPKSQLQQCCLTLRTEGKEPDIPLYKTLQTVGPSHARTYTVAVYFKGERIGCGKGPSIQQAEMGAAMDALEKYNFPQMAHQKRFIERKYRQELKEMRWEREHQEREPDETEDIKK
The series is described as follows: single-molecule immunoprecipitation with subunit counting by photobleaching.

Series [2] concerns the molecule itself. The series is described as above.
Series [3] concerns the molecule itself. Description: SEC + other: glycerol gradient centrifugation.

B1: SNAP-DGCR8 (natural protein)
chain: METDESPSPLPCGPAGEAVMESRARPFQALPREQSPPPPLQTSSGAEVMDVGSGGDGQSELPAEDPFNFYGASLLSKGSFSKGRLLIDPNCSGHSPRTARHAPAVRKFSPDLKLLKDVKISVSFTESCRSKDRKVLYTGAERDVRAECGLLLSPVSGDVHACPFGGSVGDGVGIGGESADKKDEENELDQEKRVEYAVLDELEDFTDNLELDEEGAGGFTAKAIVQRDRVDEEALNFPYEDDFDNDVDALLEEGLCAPKKRRTEEKYGGDSDHPSDGETSVQPMMTKIKTVLKSRGRPPTEPLPDGWIMTFHNSGVPVYLHRESRVVTWSRPYFLGTGSIRKHDPPLSSIPCLHYKKMKDNEEREQSSDLTPSGDVSPVKPLSRSAELEFPLDEPDSMGADPGPPDEKDPLGAEAAPGALGQVKAKVEVCKDESVDLEEFRSYLEKRFDFEQVTVKKFRTWAERRQFNREMKRKQAESERPILPANQKLITLSVQDAPTKKEFVINPNGKSEVCILHEYMQRVLKVRPVYNFFECENPSEPFGASVTIDGVTYGSGTASSKKLAKNKAARATLEILIPDFVKQTSEEKPKDSEELEYFNHISIEDSRVYELTSKAGLLSPYQILHECLKRNHGMGDTSIKFEVVPGKNQKSEYVMACGKHTVRGWCKNKRVGKQLASQKILQLLHPHVKNWGSLLRMYGRESSKMVKQETSDKSVIELQQYAKKNKPNLHILSKLQEEMKRLAEEREETRKKPKMSIVASAQPGGEPLCTVDV
modifications: SNAP-surface Alexa fluor 546 or SNAP-surface Alexa fluor 647 on the SNAP tag
For the molecule B1, the stoichiometry N (usually a count of units in the complex or per binding partner) amounted to 2 DGCR8 per Drosha in series [1] and 2 DGCR8 per complex in series [2].

B2: FLAG-SNAP-DGCR8 (natural protein)
chain: METDESPSPLPCGPAGEAVMESRARPFQALPREQSPPPPLQTSSGAEVMDVGSGGDGQSELPAEDPFNFYGASLLSKGSFSKGRLLIDPNCSGHSPRTARHAPAVRKFSPDLKLLKDVKISVSFTESCRSKDRKVLYTGAERDVRAECGLLLSPVSGDVHACPFGGSVGDGVGIGGESADKKDEENELDQEKRVEYAVLDELEDFTDNLELDEEGAGGFTAKAIVQRDRVDEEALNFPYEDDFDNDVDALLEEGLCAPKKRRTEEKYGGDSDHPSDGETSVQPMMTKIKTVLKSRGRPPTEPLPDGWIMTFHNSGVPVYLHRESRVVTWSRPYFLGTGSIRKHDPPLSSIPCLHYKKMKDNEEREQSSDLTPSGDVSPVKPLSRSAELEFPLDEPDSMGADPGPPDEKDPLGAEAAPGALGQVKAKVEVCKDESVDLEEFRSYLEKRFDFEQVTVKKFRTWAERRQFNREMKRKQAESERPILPANQKLITLSVQDAPTKKEFVINPNGKSEVCILHEYMQRVLKVRPVYNFFECENPSEPFGASVTIDGVTYGSGTASSKKLAKNKAARATLEILIPDFVKQTSEEKPKDSEELEYFNHISIEDSRVYELTSKAGLLSPYQILHECLKRNHGMGDTSIKFEVVPGKNQKSEYVMACGKHTVRGWCKNKRVGKQLASQKILQLLHPHVKNWGSLLRMYGRESSKMVKQETSDKSVIELQQYAKKNKPNLHILSKLQEEMKRLAEEREETRKKPKMSIVASAQPGGEPLCTVDV
modifications: SNAP-surface 546 Alexa fluorophore on the SNAP tag in a portion of the sample
As for B2, the “stoichiometry N” value in series [3] is 2 SNAP-DGCR8 per complex.
